In experiment [1] the target is βPix-SH3 mutant-Myc (W43K).

B1: Dyn2-GFP (natural protein)
chain: MGNRGMEELIPLVNKLQDAFSSIGQSCHLDLPQIAVVGGQSAGKSSVLENFVGRDFLPRGSGIVTRRPLILQLIFSKTEYAEFLHCKSKKFTDFDEVRQEIEAETDRVTGTNKGISPVPINLRVYSPHVLNLTLIDLPGITKVPVGDQPPDIEYQIKDMILQFISRESSLILAVTPANMDLANSDALKLAKEVDPQGLRTIGVITKLDLMDEGTDARDVLENKLLPLRRGYIGVVNRSQKDIEGRKDIRAALAAERKFFLSHPAYRHMADRMGTPHLQKTLNQQLTNHIRESLPTLRSKLQSQLLSLEKEVEEYKNFRPDDPTRKTKALLQMVQQFGVDFEKRIEGSGDQVDTLELSGGARINRIFHERFPFELVKMEFDEKDLRREISYAIKNIHGVRTGLFTPDLAFEAIVKKQVVKLKEPCLKCVDLVIQELISTVRQCTSKLSSYPRLREETERIVTTYIREREGRTKDQILLLIDIEQSYINTNHEDFIGFANAQQRSTQLNKKRAIPNQGEILVIRRGWLTINNISLMKGGSKEYWFVLTAESLSWYKDEEEKEKKYMLPLDNLKIRDVEKGFMSNKHVFAIFNTEQRNVYKDLRQIELACDSQEDVDSWKASFLRAGVYPEKDQAENEDGAQENTFSMDPQLERQVETIRNLVDSYVAIINKSIRDLMPKTIMHLMINNTKAFIHHELLAYLYSSADQSSLMEESAEQAQRRDDMLRMYHALKEALNIIGDISTSTVSTPVPPPVDDTWLQNTSSHSPTPQRRPVSSVHPPGRPPAVRGPTPGPPLIPMPVGATSSFSAPPIPSRPGPQNVFANNDPFSAPPQIPSRPARIPPGIPPGVPSRRAPAAPSRPTIIRPAEPSLLD
B1 registered a Rac1 activity (Rac1-GTP by GST-PBD pull-down, against total Rac1) in HEK293T cells transfected with Flag-βPix and Dyn2-GFP, relative to non-transfected cells in the experiment with Flag-βPix of 3 fold. The molecule further returned a Rac1 activity (Rac1-GTP by GST-PBD pull-down) in HEK293T cells transfected with the Flag-tagged SH3 mutant of βPix and Dyn2-GFP in experiment [1] of 50%.

The values above are taken from paper PMC8648671.
